Conditions in all cases: both partners purified
Assay [1] concerns the target T1, wild-type poliovirus type 2 capsid (Poliovirus type 2, wild type; strain …, strain).
T1 construct: also called WTPV2; wild-type PV2; copies: + + +
T1 chain 1: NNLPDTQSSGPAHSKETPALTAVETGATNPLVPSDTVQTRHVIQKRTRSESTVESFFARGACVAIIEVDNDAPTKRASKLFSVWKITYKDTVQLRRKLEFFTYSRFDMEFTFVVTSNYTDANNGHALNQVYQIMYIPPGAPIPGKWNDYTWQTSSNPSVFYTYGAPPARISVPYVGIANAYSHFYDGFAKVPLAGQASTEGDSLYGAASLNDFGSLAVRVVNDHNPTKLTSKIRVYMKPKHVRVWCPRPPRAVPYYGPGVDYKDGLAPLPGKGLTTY
T1 chain 2: not shown
T1 chain 3: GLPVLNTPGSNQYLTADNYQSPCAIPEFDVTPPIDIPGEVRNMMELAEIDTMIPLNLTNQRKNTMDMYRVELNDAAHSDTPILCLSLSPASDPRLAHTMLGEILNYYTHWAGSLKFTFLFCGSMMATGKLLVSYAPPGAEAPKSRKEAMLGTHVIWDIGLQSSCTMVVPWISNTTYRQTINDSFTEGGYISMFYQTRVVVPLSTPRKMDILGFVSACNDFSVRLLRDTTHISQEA
The assay is described as follows: cryo-EM structure.

For assay [2], the target named is T2, Sabin inactivated poliovirus type 2 capsid (Poliovirus type 2, Sabin strain …, strain).
T2 construct: also called SIPV2; ISPV2; copies: + + +
The assay is described as follows: BLI. A general note: BLI is a label-free optical method that tracks binding on a fibre tip over time.

The target of assay [3] is T3, Sabin poliovirus type 1 capsid (live) (Poliovirus type 1, Sabin (live), UniProt P03301, strain, biotin (EZ-Link Micro Sulfo-NHS-Biotinylation Kit) | biotin (EZ-Link Micro Sulfo-NHS-Biotinylation Kit) | biotin (EZ-Link Micro Sulfo-NHS-Biotinylation Kit)).
T3 construct: also called SPV1; Sabin serotype 1; copies: + + +
The assay is described as follows: BLI.

The target in assay [4] is T4, wild-type poliovirus serotype 2 capsid (Poliovirus type 2, wild type; strain …, strain).
T4 construct: also called WTPV2; wild-type PV2; copies: + + +
T4 chain 1: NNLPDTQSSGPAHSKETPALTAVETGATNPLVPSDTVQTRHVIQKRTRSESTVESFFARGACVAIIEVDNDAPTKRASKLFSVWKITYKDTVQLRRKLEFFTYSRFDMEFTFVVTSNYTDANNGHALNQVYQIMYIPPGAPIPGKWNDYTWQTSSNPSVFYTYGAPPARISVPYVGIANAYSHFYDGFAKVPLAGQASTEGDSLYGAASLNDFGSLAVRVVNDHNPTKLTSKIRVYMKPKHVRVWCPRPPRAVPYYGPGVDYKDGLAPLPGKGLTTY
T4 chain 2: not shown
T4 chain 3: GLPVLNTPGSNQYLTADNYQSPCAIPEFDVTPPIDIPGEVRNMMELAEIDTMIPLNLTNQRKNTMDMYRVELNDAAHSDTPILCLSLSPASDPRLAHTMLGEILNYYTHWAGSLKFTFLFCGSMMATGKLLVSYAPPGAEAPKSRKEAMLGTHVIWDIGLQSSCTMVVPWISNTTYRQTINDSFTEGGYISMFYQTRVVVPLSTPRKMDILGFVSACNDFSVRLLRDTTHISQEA
The assay is described as follows: cryo-EM structure.

Broadly, the Kd is the constant that tells how readily two partners part at equilibrium. Low values mean tighter binding, high ones weaker binding. What is called koff is a measure of how fast the partners let go of each other. A high value points to a short-lived complex. As usually defined, the kon is the second-order rate constant of association. A higher kon goes with fast association.

B1: 9H2 fragment antigen-binding (Fab) (Fab, V domains shown)
VH: LVQSGAELKKPGASVKFSCQASGFTFTTYDIHWVRQAPGQGLEWMGMISPSRDSTIYAQKFQGRVTMTSDTSTSTVYMELTSLRSEDTALYYCATASRPSAWVFRSLYTYYYMDVWGTGTTVTVSS
VL: QSALTQPASVSGSPGQSITISCTGTITDIGYYNYVSWYQQHPGKAPKLIIFDVTNRPSGVSDRFSGSKSGNTASLTISGLQAEDEGDYYCFSHRSNNIRVFGGGTKLTVL
notes: also called 9H2 Fab; Fab 9H2
As to B1, the binding result in assay [1] is “binds”. In assay [2], binding was characterised by a dissociation constant (Kd) of 2.1 µM, the koff came out at 0.483 s⁻¹ and the on-rate constant (kon) was 230000 M⁻¹ s⁻¹. In assay [3], the affinity, expressed as Kd, was 936 µM; the koff came to 1.05 s⁻¹; the kon is 1120 M⁻¹ s⁻¹.

B2: 9H2 fragment antigen-binding (Fab) (Fab, V domains shown)
VH: LVQSGAELKKPGASVKFSCQASGFTFTTYDIHWVRQAPGQGLEWMGMISPSRDSTIYAQKFQGRVTMTSDTSTSTVYMELTSLRSEDTALYYCATASRPSAWVFRSLYTYYYMDVWGTGTTVTVSS
VL: QSALTQPASVSGSPGQSITISCTGTITDIGYYNYVSWYQQHPGKAPKLIIFDVTNRPSGVSDRFSGSKSGNTASLTISGLQAEDEGDYYCFSHRSNNIRVFGGGTKLTVL
notes: also called 9H2 Fab; Fab 9H2
Consider B2, for which the binding result in assay [4] is on record as “binds”.

Source of the values: publication PMC10564760, “A human monoclonal antibody binds within the poliovirus receptor-binding site to neutralize all three serotypes” (Nature Communications, 2023).
